The source of these data is patent EP1942187B1.

Holding throughout (experiment): cell-based or functional assay
One assay addresses human zcytor19 (human).
In another assay the target is IL10Rb (CRF2-4) (human) (UniProt Q08334).
Assay [1] concerns the target zcytoR19 and IL10Rb (CRF2-4) coexpressed on BHK cells (human).

IL10Rb (CRF2-4) (human), sequence (Q08334 20-325 limits assumed, form in doubt): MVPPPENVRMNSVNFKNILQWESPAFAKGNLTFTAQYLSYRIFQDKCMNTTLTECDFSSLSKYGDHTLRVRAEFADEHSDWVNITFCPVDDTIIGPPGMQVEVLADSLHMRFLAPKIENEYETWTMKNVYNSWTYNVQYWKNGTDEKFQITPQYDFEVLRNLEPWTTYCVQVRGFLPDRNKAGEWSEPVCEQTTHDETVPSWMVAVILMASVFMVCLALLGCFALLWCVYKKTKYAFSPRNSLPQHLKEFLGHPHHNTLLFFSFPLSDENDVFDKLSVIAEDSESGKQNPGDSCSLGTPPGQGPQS

For “huIL10 (from UniProt P22301 19-178) (ligand)”, the ISRE-luciferase fold induction; 293 cells transfected with ISRE-Luc./Zcytor19; HuIL 10 100ng/ml (fold induction) in the assay with human zcytor19 (human) was found to be 0.5.

Take “zcyto10 (from UniProt Q9NYY1 25-176) (ligand)”: in the assay with human zcytor19 (human), the ISRE-luciferase fold induction; 293 cells transfected with ISRE-Luc./Zcytor19; Zcyto10 125ng/ml (fold induction) is 1.

On to zcyto20 (ligand), for which, in the assay with IL10Rb (CRF2-4) (human), the ISRE-luciferase fold induction; wild-type 293 cells; Zcyto20 0.01 ng/ml; + IL10Rb neutralizing antibody (8 ug/ml) (fold induction) was 0.8, the ISRE-luciferase fold induction; wild-type 293 cells; Zcyto20 0.01 ng/ml; no antibody (fold induction) stood at 1, the ISRE-luciferase fold induction; wild-type 293 cells; Zcyto20 0.1 ng/ml; + IL10Rb neutralizing antibody (8 ug/ml) (fold induction) worked out at 1 and the ISRE-luciferase fold induction; wild-type 293 cells; Zcyto20 0.1 ng/ml; no antibody (fold induction) was found to be 1. Besides, in the assay with IL10Rb (CRF2-4) (human), the ISRE-luciferase fold induction; wild-type 293 cells; Zcyto20 1 ng/ml; + IL10Rb neutralizing antibody (8 ug/ml) (fold induction) worked out at 0.9, the ISRE-luciferase fold induction; wild-type 293 cells; Zcyto20 1 ng/ml; no antibody (fold induction) was 1, the ISRE-luciferase fold induction; wild-type 293 cells; Zcyto20 10 ng/ml; + IL10Rb neutralizing antibody (8 ug/ml) (fold induction) was 0.9 and the ISRE-luciferase fold induction; wild-type 293 cells; Zcyto20 10 ng/ml; no antibody (fold induction) stood at 4. Further, in the assay with IL10Rb (CRF2-4) (human), the ISRE-luciferase fold induction; wild-type 293 cells; Zcyto20 100 ng/ml; + IL10Rb neutralizing antibody (8 ug/ml) (fold induction) was 0.8, the ISRE-luciferase fold induction; wild-type 293 cells; Zcyto20 100 ng/ml; no antibody (fold induction) was 8.4, the ISRE-luciferase fold induction; zcytoR19-overexpressing 293 cells; Zcyto20 0.01 ng/ml; + IL10Rb neutralizing antibody (8 ug/ml) (fold induction) is 1.2 and the ISRE-luciferase fold induction; zcytoR19-overexpressing 293 cells; Zcyto20 0.01 ng/ml; no antibody (fold induction) worked out at 1.1. In the assay with IL10Rb (CRF2-4) (human), the ISRE-luciferase fold induction; zcytoR19-overexpressing 293 cells; Zcyto20 0.1 ng/ml; + IL10Rb neutralizing antibody (8 ug/ml) (fold induction) turned out to be 1.1, the ISRE-luciferase fold induction; zcytoR19-overexpressing 293 cells; Zcyto20 0.1 ng/ml; no antibody (fold induction) was determined as 6, the ISRE-luciferase fold induction; zcytoR19-overexpressing 293 cells; Zcyto20 1 ng/ml; + IL10Rb neutralizing antibody (8 ug/ml) (fold induction) came out at 1.3 and the ISRE-luciferase fold induction; zcytoR19-overexpressing 293 cells; Zcyto20 1 ng/ml; no antibody (fold induction) is 68. In the assay with IL10Rb (CRF2-4) (human), the ISRE-luciferase fold induction; zcytoR19-overexpressing 293 cells; Zcyto20 10 ng/ml; + IL10Rb neutralizing antibody (8 ug/ml) (fold induction) was 23, the ISRE-luciferase fold induction; zcytoR19-overexpressing 293 cells; Zcyto20 10 ng/ml; no antibody (fold induction) is 97, the ISRE-luciferase fold induction; zcytoR19-overexpressing 293 cells; Zcyto20 100 ng/ml; + IL10Rb neutralizing antibody (8 ug/ml) (fold induction) was 60 and the ISRE-luciferase fold induction; zcytoR19-overexpressing 293 cells; Zcyto20 100 ng/ml; no antibody (fold induction) amounted to 91. In the assay with human zcytor19 (human), this substance returned an ISRE-luciferase fold induction; 293 cells transfected with ISRE-Luc./Zcytor19; Zcyto20 125ng/ml (fold induction) of 125, an ISRE-luciferase fold induction; BHK cells transfected with zcytoR19 alone; zcyto20 0.001 ng/ml (fold induction) of 1.4, an ISRE-luciferase fold induction; BHK cells transfected with zcytoR19 alone; zcyto20 0.01 ng/ml (fold induction) of 1.2 and an ISRE-luciferase fold induction; BHK cells transfected with zcytoR19 alone; zcyto20 0.1 ng/ml (fold induction) of 1.25. In the assay with human zcytor19 (human), this substance registered an ISRE-luciferase fold induction; BHK cells transfected with zcytoR19 alone; zcyto20 1 ng/ml (fold induction) of 1.3, an ISRE-luciferase fold induction; BHK cells transfected with zcytoR19 alone; zcyto20 10 ng/ml (fold induction) of 2.1, an ISRE-luciferase fold induction; BHK cells transfected with zcytoR19 alone; zcyto20 100 ng/ml (fold induction) of 2.2 and an ISRE-luciferase fold induction; BHK cells transfected with zcytoR19 alone; zcyto20 1000 ng/ml (fold induction) of 2.25. In assay [1], this substance registered an ISRE-luciferase fold induction; BHK cells transfected with zcytoR19 and IL10Rb (CRF2-4); zcyto20 0.001 ng/ml (fold induction) of 1.5; an ISRE-luciferase fold induction; BHK cells transfected with zcytoR19 and IL10Rb (CRF2-4); zcyto20 0.01 ng/ml (fold induction) of 1.6; an ISRE-luciferase fold induction; BHK cells transfected with zcytoR19 and IL10Rb (CRF2-4); zcyto20 0.1 ng/ml (fold induction) of 2.1; an ISRE-luciferase fold induction; BHK cells transfected with zcytoR19 and IL10Rb (CRF2-4); zcyto20 1 ng/ml (fold induction) of 2.5. In assay [1], this substance yielded an ISRE-luciferase fold induction; BHK cells transfected with zcytoR19 and IL10Rb (CRF2-4); zcyto20 10 ng/ml (fold induction) of 2.4; an ISRE-luciferase fold induction; BHK cells transfected with zcytoR19 and IL10Rb (CRF2-4); zcyto20 100 ng/ml (fold induction) of 2.6; an ISRE-luciferase fold induction; BHK cells transfected with zcytoR19 and IL10Rb (CRF2-4); zcyto20 1000 ng/ml (fold induction) of 2.1.
